T1: [2Fe-2S]-Grx3-Bol2 heterodimer (Saccharomyces cerevisiae, UniProt P53082+Q03835)
T1 sequence (Q03835 1-250): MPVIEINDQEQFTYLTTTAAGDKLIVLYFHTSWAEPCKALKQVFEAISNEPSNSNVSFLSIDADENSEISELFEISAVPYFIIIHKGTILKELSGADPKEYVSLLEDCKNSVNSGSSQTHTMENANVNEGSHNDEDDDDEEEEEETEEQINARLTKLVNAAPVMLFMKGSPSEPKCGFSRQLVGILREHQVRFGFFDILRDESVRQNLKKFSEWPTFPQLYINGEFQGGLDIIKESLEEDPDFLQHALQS
T1 sequence (P53082 1-120): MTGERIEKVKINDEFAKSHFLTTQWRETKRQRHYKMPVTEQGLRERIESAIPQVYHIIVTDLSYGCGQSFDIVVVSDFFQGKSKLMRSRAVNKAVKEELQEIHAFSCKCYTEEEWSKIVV

T2: [2Fe-2S]-Grx3-Bol2 heterodimer (S. cerevisiae, UniProt Q03835 1-250; P53082 1-120)
T2 sequence (looked up) 1: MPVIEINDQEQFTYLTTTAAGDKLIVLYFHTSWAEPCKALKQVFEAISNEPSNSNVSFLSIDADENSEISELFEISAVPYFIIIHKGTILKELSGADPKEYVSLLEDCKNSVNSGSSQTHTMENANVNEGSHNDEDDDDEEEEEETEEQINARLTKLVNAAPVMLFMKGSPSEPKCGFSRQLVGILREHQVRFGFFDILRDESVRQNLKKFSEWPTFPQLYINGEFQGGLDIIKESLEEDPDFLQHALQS
T2 sequence (looked up) 2: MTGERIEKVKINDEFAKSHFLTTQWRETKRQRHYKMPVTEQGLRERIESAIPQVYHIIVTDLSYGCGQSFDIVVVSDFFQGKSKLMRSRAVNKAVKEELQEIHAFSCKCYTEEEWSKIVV

T3: Grx3 (S. cerevisiae, UniProt Q03835 1-250)
T3 sequence (looked up): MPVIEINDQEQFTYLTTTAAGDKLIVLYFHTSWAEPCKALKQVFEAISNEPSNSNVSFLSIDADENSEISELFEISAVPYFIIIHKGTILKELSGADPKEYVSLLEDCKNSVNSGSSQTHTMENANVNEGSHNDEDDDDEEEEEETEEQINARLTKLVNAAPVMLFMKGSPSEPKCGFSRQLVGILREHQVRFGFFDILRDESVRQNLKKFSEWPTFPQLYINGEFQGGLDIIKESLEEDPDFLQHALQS


Experiments:
[1] = target: T1, [2Fe-2S]-Grx3-Bol2 heterodimer; experiment: Bradford, iron and acid-labile sulfide analysis; type: binding; conditions: cluster bridges Grx3 and Bol2; pH 8.0, 1 mM GSH, anaerobic
[2] = target: T2, [2Fe-2S]-Grx3-Bol2 heterodimer; experiment: heparin chromatography co-elution
Grx3 = target: T3, Grx3; experiment: SEC

binding result [2] | Molecule | other results
 | [2Fe-2S] cluster | [2Fe-2S] cluster per heterodimer [1]: 0.9–1.05 per heterodimer
binds | Aft2(1–204) C187A (domain or fragment, S. cerevisiae, UniProt Q08957 1-204, looked up) MKAKSMKSIISVPISVSKTGKMKLTASPDNLASMMSKDQNKLIHLDPVPSFEDRHEIKPWLQKIFYPQGIDIVIERSDSSKVTFKCRSVRSKVGLNPKSKGSSSRSHACPFRIRAAYSVRLQKWNVVVMNNIHSHELRFDLITKTDDYKKFKENLRQKNDEKAIKTFDELEYKASLNLPLVTPIISADCGLTKEIEAFNNIFLP | 
binds | Aft2(1–204) C189A (domain or fragment, S. cerevisiae, UniProt Q08957 1-204, looked up) MKAKSMKSIISVPISVSKTGKMKLTASPDNLASMMSKDQNKLIHLDPVPSFEDRHEIKPWLQKIFYPQGIDIVIERSDSSKVTFKCRSVRSKVGLNPKSKGSSSRSHACPFRIRAAYSVRLQKWNVVVMNNIHSHELRFDLITKTDDYKKFKENLRQKNDEKAIKTFDELEYKASLNLPLVTPIISCDAGLTKEIEAFNNIFLP | 
 | Bol2 (natural protein, S. cerevisiae, UniProt P53082 1-120, looked up) MTGERIEKVKINDEFAKSHFLTTQWRETKRQRHYKMPVTEQGLRERIESAIPQVYHIIVTDLSYGCGQSFDIVVVSDFFQGKSKLMRSRAVNKAVKEELQEIHAFSCKCYTEEEWSKIVV | binding result (Grx3): binds

— PMC6800183 (Journal of biological inorganic chemistry : JBIC : a …, 2019)
